Results from article PMC3616908.

B1: N-terminal Rad9 CAD region (yeast two-hybrid fusion) [S. cerevisiae] / Chk1 (yeast two-hybrid fusion) [S. cerevisiae] (parent)
chain 1: MSGQLVQWKSSPDRVTQSAIKEALHSPLADGDMNEMNVPVDPLENKVNSTNIIEGSPKANPNPVKFMNTSEIFQKSLGLLDESPRHDDELNIEVGDNDRPNANILHNERTPDLDRIANFFKSNRTPGKENLLTKYQSSDLEDTPLMLRKKMTFQTPTDPLEQKTFKKLKSDTGFCYYGEQNDGEENASLEVTEADATFVQMAERSADNYDCALEGIVTPKRYKDELSKSGG
chain 2: MSLSQVSPLPHIKDVVLGDTVGQGAFACVKNAHLQMDPSIILAVKFIHVPTCKKMGLSDKDITKEVVLQSKCSKHPNVLRLIDCNVSKEYMWIILEMADGGDLFDKIEPDVGVDSDVAQFYFQQLVSAINYLHVECGVAHRDIKPENILLDKNGNLKLADFGLASQFRRKDGTLRVSMDQRGSPPYMAPEVLYSEEGYYADRTDIWSIGILLFVLLTGQTPWELPSLENEDFVFFIENDGNLNWGPWSKIEFTHLNLLRKILQPDPNKRVTLKALKLHPWVLRRASFSGDDGLCNDPELLAKKLFSHLKVSLSNENYLKFTQDTNSNNRYISTQPIGNELAELEHDSMHFQTVSNTQRAFTSYDSNTNYNSGTGMTQEAKWTQFISYDIAALQFHSDENDCNELVKRHLQFNPNKLTKFYTLQPMDVLLPILEKALNLSQIRVKPDLFANFERLCELLGYDNVFPLIINIKTKSNGGYQLCGSISIIKIEEELKSVGFERKTGDPLEWRRLFKKISTICRDIILIPN

Variants of: B1
Test: yeast two-hybrid (β-galactosidase activity)
Conditions: with Chk1 (yeast two-hybrid fusion) [S. cerevisiae]; parent: 1; read off a plot

Variant | response [AU]
chain 1 MSGQLVQWKSAPDRVTQSAIKEALHAPLADGDMNEMNVPVDPLENKVNSTNIIEGAPKANPNPVKFMNTSEIFQKSLGLLDEAPRHDDELNIEVGDNDRPNANILHNERAPDLDRIANFFKSNRAPGKENLLTKYQSSDLEDTPLMLRKKMTFQAPTDPLEQKTFKKLKSDTGFCYYGEQNDGEENASLEVTEADATFVQMAERSADNYDCALEGIVAPKRYKDELSKSGG [chain 1 S11A S26A S56A S83A T110A T125A T155A T218A] | 0.8
chain 1 MSGQLVQWKSAPDRVTQSAIKEALHAPLADGDMNEMNVPVDPLENKVNSTNIIEGAPKANPNPVKFMNTSEIFQKSLGLLDEAPRHDDELNIEVGDNDRPNANILHNERAPDLDRIANFFKSNRAPGKENLLTKYQSSDLEDAPLMLRKKMTFQAPTDPLEQKTFKKLKSDTGFCYYGEQNDGEENASLEVTEADATFVQMAERSADNYDCALEGIVAPKRYKDELSKSGG [chain 1 S11A S26A S56A S83A T110A T125A T143A T155A T218A] | 0.07
chain 1 MSGQLVQWKSAPDRVTQSAIKEALHAPLADGDMNEMNVPVDPLENKVNSTNIIEGAPKANPNPVKFMNTSEIFQKSLGLLDEAPRHDDELNIEVGDNDRPNANILHNERAPDLDRIANFFKSNRAPGKENLLTKYQSSDLEDAPLMLRKKMTFQTPTDPLEQKTFKKLKSDTGFCYYGEQNDGEENASLEVTEADATFVQMAERSADNYDCALEGIVAPKRYKDELSKSGG [chain 1 S11A S26A S56A S83A T110A T125A T143A T218A] | 0.28
chain 1 MSGQLVQWKSAPDRVTQSAIKEALHAPLADGDMNEMNVPVDPLENKVNSTNIIEGAPKANPNPVKFMNTSEIFQKSLGLLDEAPRHDDELNIEVGDNDRPNANILHNERAPDLDRIANFFKSNRAPGKENLLTKYQSSDLEDAPLMLRKKMTFQAPTDPLEQKTFKKLKSDTGFCYYGEQNDGEENASLEVTEADATFVQMAERSADNYDCALEGIVTPKRYKDELSKSGG [chain 1 S11A S26A S56A S83A T110A T125A T143A T155A] | 0.15
chain 1 MSGQLVQWKSAPDRVTQSAIKEALHAPLADGDMNEMNVPVDPLENKVNSTNIIEGAPKANPNPVKFMNTSEIFQKSLGLLDEAPRHDDELNIEVGDNDRPNANILHNERTPDLDRIANFFKSNRAPGKENLLTKYQSSDLEDAPLMLRKKMTFQAPTDPLEQKTFKKLKSDTGFCYYGEQNDGEENASLEVTEADATFVQMAERSADNYDCALEGIVAPKRYKDELSKSGG [chain 1 S11A S26A S56A S83A T125A T143A T155A T218A] | 0.2
chain 1 MSGQLVQWKSAPDRVTQSAIKEALHAPLADGDMNEMNVPVDPLENKVNSTNIIEGAPKANPNPVKFMNTSEIFQKSLGLLDEAPRHDDELNIEVGDNDRPNANILHNERAPDLDRIANFFKSNRTPGKENLLTKYQSSDLEDAPLMLRKKMTFQAPTDPLEQKTFKKLKSDTGFCYYGEQNDGEENASLEVTEADATFVQMAERSADNYDCALEGIVAPKRYKDELSKSGG [chain 1 S11A S26A S56A S83A T110A T143A T155A T218A] | 0.59

Now from value to variant:

response [AU] | Variant
0.14 | chain 1 MSGQLVQWKSAPDRVTQSAIKEALHSPLADGDMNEMNVPVDPLENKVNSTNIIEGAPKANPNPVKFMNTSEIFQKSLGLLDEAPRHDDELNIEVGDNDRPNANILHNERAPDLDRIANFFKSNRAPGKENLLTKYQSSDLEDAPLMLRKKMTFQAPTDPLEQKTFKKLKSDTGFCYYGEQNDGEENASLEVTEADATFVQMAERSADNYDCALEGIVAPKRYKDELSKSGG [chain 1 S11A S56A S83A T110A T125A T143A T155A T218A]
0.18 | chain 1 MSGQLVQWKSAPDRVTQSAIKEALHAPLADGDMNEMNVPVDPLENKVNSTNIIEGAPKANPNPVKFMNTSEIFQKSLGLLDESPRHDDELNIEVGDNDRPNANILHNERAPDLDRIANFFKSNRAPGKENLLTKYQSSDLEDAPLMLRKKMTFQAPTDPLEQKTFKKLKSDTGFCYYGEQNDGEENASLEVTEADATFVQMAERSADNYDCALEGIVAPKRYKDELSKSGG [chain 1 S11A S26A S56A T110A T125A T143A T155A T218A]
0.22 | chain 1 MSGQLVQWKSSPDRVTQSAIKEALHAPLADGDMNEMNVPVDPLENKVNSTNIIEGAPKANPNPVKFMNTSEIFQKSLGLLDEAPRHDDELNIEVGDNDRPNANILHNERAPDLDRIANFFKSNRAPGKENLLTKYQSSDLEDAPLMLRKKMTFQAPTDPLEQKTFKKLKSDTGFCYYGEQNDGEENASLEVTEADATFVQMAERSADNYDCALEGIVAPKRYKDELSKSGG [chain 1 S26A S56A S83A T110A T125A T143A T155A T218A]
0.18 | chain 1 MSGQLVQWKSAPDRVTQSAIKEALHAPLADGDMNEMNVPVDPLENKVNSTNIIEGSPKANPNPVKFMNTSEIFQKSLGLLDEAPRHDDELNIEVGDNDRPNANILHNERAPDLDRIANFFKSNRAPGKENLLTKYQSSDLEDAPLMLRKKMTFQAPTDPLEQKTFKKLKSDTGFCYYGEQNDGEENASLEVTEADATFVQMAERSADNYDCALEGIVAPKRYKDELSKSGG [chain 1 S11A S26A S83A T110A T125A T143A T155A T218A]
